In PMC9027224 (Diagnostics, 2022):
Where two headings read alike, the source gives them in different places.

What was measured:
[1] = human, in vivo
Source text: Two peripheral intravenous catheters were placed, one for tracer injection and one in the contralateral arm for withdrawal of blood samples and administration of i.v. contrast agent. Electrocardiogram and vital signs as well as safety blood samples were monitored before and following [^68Ga]Ga-NODAGA-E[c(RGDyK)]2 injection. […] Furthermore, urine was collected for pharmacokinetic analysis and dosimetry in a subset of patients (Figure 1).

[2] = set-up: species or system human; conditions: in vivo, iv
Source text: Two peripheral intravenous catheters were placed, one for tracer injection and one in the contralateral arm for withdrawal of blood samples and administration of i.v. contrast agent. Electrocardiogram and vital signs as well as safety blood samples were monitored before and following [^68Ga]Ga-NODAGA-E[c(RGDyK)]2 injection. […] Furthermore, urine was collected for pharmacokinetic analysis and dosimetry in a subset of patients (Figure 1). The activity concentration of the urine and plasma was counted on Cobra II TM Gamma Counter (Packard, CT, USA). Blood and urine samples were analyzed on a Dionex UltiMate 3000 column-switching high-performance liquid chromatography (HPLC) system with a Posi-RAM Module 4 (ThermoFisher Scientific, Waltham, MA, USA). The full blood samples were centrifuged (3500 rpm, 4 min) and the supernatant plasma was collected and filtered through a […] syringe filter prior to the HPLC analysis. The HPLC analysis consisted of an extraction step and an analytical step, as previously described. During the extraction step, the plasma samples were passed through a shim-pack XR-ODS (30 × 4.6 mm, 2.2 μm). The valves were switched, and the sample was then analyzed on an Onyx monolithic column (C18, 50 × 4.6 mm). […]

[3] = set-up: species or system human; conditions: in vivo
Protocol: Dosimetry was based on the decay-uncorrected image sets from the 3 time points (10 patients) supplemented with sampled urine data (7 patients). For each patient, organ, and time point, tissue activity concentration (kBq/mL) was determined in VOIs defined on CT. Activity (per patient, organ and time) was estimated by multiplying concentration values by organ masses of the OLINDA adult phantom, normalized per injected MBq and scaled for patient weight. Time integrated activity coefficients (TIAC, unit h) for each patient and organ was determined by numerical integration and analytical extrapolation to infinity assuming only physical decay. The resulting organ TIACs were averaged over patients. All data were entered into OLINDA/EXM 2.0 software (Vanderbilt University, TN, USA and HERMES Medical Solutions, Stockholm, Sweden).
Urine was collected immediately after each scan in pre-weighted plastic bottles. The cumulated decay-corrected activity (MBq) of the excreted urine was plotted over time for all 7 subjects and data fitted to a one-phase exponential association. […] A detailed description of the dosimetry is available in Supplementary Material (Section S2).
testine, spleen, stomach contents, testes, thyroid, and upper large intestine. For each pa-
tient, organ, and time-point, tissue activity concentration (kBq/mL) was calculated as the
average of the mean values from 3 VOIs. Total activity (per patient, organ and time) was
estimated by multiplying these average values by organ masses of the OLINDA male
adult phantom. Activity values were normalized to 1MBq by dividing with injected
activity and scaled with the ratio of actual patient weight to the weight of the standard
model (73 kg). As a surrogate for red marrow activity, VOIs were drawn encompassing
large portions of the L3–L5 vertebrae. Time integrated activity coefficients (TIAC, for-
merly known as residence time; unit h) for each patient and organ was determined by nu-
merical integration up to the third (last) data point and analytical extrapolation to infinity
assuming only physical decay. Piecewise linearity was assumed from time zero up to the
second data point and a mono-exponential was used between the second and third data
points. The resulting organ TIACs were averaged over patients. All data were entered into
OLINDA/EXM 2.0 software (Vanderbilt Universi ty, and HERMES Medical Solutions).
Urine was collected immediately after each scan in pre-weighted plastic bottles and
for each individual voiding the weight (volume) was measured and a 500 μL sample was
drawn for activity measurement in a calibrated gamma well counter (Cobra II TM,
Gamma Counting Systems; PACKARD, Meriden, CT, USA).The cumulated decay cor-
rected activity (in MBq) of the excreted urine, normalized to 1 MBq of injection, was plot-
ted over time (in Excel) for all 7 subjects and data fitted to a one phase exponential asso-
ciation (exponential growing towards a limit). The resulting limit and half-life were used
as input to the bladder voiding model of OLINDA, yielding the TIAC for bladder con-
tents. In concordance with the actual setup a bladder voiding interval of 1 hour was se-
The value for “remainder tissue” was calculated as the total area (in h) for 1 MBq
minus the sum of the organ-specific values (except bladder) minus the value passed to
urine (based on the fitted model parameters). The fraction of the latter that is attributed to
the bladder depends on the voiding interval.
The output from OLINDA consists of absorbed doses for organs and effective dose
with weight factors according to ICRP 103 [3]. […]
3. The 2007 Recommendations of the International Commission on Radiological Protection. ICRP publication 103. Ann ICRP

[4] = in vivo; cited from earlier work
Source text: (§1) A secondary objective of our study was to assess [^68Ga]Ga-NODAGA-E[c(RGDyK)]2 uptake in tumors.

[5] = system: head and neck squamous cell carcinoma; conditions: 10 patients with head and neck squamous cell carcinoma; cited from earlier work
Source text: as §1

integrin subtype αvβ3 = conditions: in vitro; unlabelled NODAGA-E[c(RGDyK)]2; ref Bentsen et al., unpublished data; read-out: affinity (KD); cited from earlier work
Source text: A large number of PET tracers with the RGD motif have been developed and tested preclinically. However, only a few have reached testing in clinical trials, and none have yet been employed for routine clinical use. The clinical translation of first-generation integrin-targeting PET tracers with ^18F, e.g., ^18F-Galacto-RGD, was hampered by complex radiochemistry. Thus, several approaches to optimize the production and tracer stability as well as tumor-binding properties have been investigated. Addressing the need for assessing integrin αvβ3, our group evaluated a number of PET tracers uti ...

Compound: N=C(N)NCCC[C@@H]1NC(=O)[C@H](CCCCNC(=O)CC[C@H](NC(=O)CCC(C(=O)O)N2CCN(CC(=O)O)CCN(CC(=O)O)CC2)C(=O)NCCCC[C@@H]2NC(=O)[C@@H](Cc3ccc(O)cc3)NC(=O)[C@H](CC(=O)O)NC(=O)CNC(=O)[C@H](CCCNC(=N)N)NC2=O)NC(=O)[C@@H](Cc2ccc(O)cc2)NC(=O)[C@H](CC(=O)O)NC(=O)CNC1=O (stereo partly drawn) [[^68Ga]Ga-NODAGA-E[c(RGDyK)]2, metal not drawn]
- acute or long-term effects on blood parameters or organ function [1]: No acute or long-term effects
- changes in vital signs, laboratory studies or electrocardiograms [1]: No significant changes
- plasma half-life ([2]; human): 8.6 min
- plasma metabolites by reversed-phase HPLC [2]: two unknown polar metabolites
- Mean Absorbed Dose, Adrenals [3]: 0.0245 mGy/MBq
- Mean Absorbed Dose, Brain [3]: 0.00252 mGy/MBq
- Mean Absorbed Dose, Breasts [3]: 0.0105 mGy/MBq
- Mean Absorbed Dose, Esophagus [3]: 0.0112 mGy/MBq
- Mean Absorbed Dose, Eyes [3]: 0.00929 mGy/MBq
- Mean Absorbed Dose, Gallbladder Wall [3]: 0.0143 mGy/MBq
- Mean Absorbed Dose, Heart Wall [3]: 0.0146 mGy/MBq
- Mean Absorbed Dose, Kidneys [3]: 0.0627 mGy/MBq
- Mean Absorbed Dose, Left Colon [3]: 0.0136 mGy/MBq
- Mean Absorbed Dose, Liver [3]: 0.0279 mGy/MBq
- Mean Absorbed Dose, Lungs [3]: 0.00792 mGy/MBq
- Mean Absorbed Dose, Osteogenic Cells [3]: 0.0136 mGy/MBq
- Mean Absorbed Dose, Ovaries [3]: 0.0154 mGy/MBq
- Mean Absorbed Dose, Pancreas [3]: 0.0144 mGy/MBq
- Mean Absorbed Dose, Prostate [3]: 0.0133 mGy/MBq
- Mean Absorbed Dose, Rectum [3]: 0.0151 mGy/MBq
- Mean Absorbed Dose, Red Marrow [3]: 0.015 mGy/MBq
- Mean Absorbed Dose, Right Colon [3]: 0.0131 mGy/MBq
- Mean Absorbed Dose, Salivary Glands [3]: 0.00996 mGy/MBq
- Mean Absorbed Dose, Small Intestine [3]: 0.0603 mGy/MBq
- Mean Absorbed Dose, Spleen [3]: 0.0504 mGy/MBq
- Mean Absorbed Dose, Stomach Wall [3]: 0.0263 mGy/MBq
- Mean Absorbed Dose, Testes [3]: 0.0192 mGy/MBq
- Mean Absorbed Dose, Thymus [3]: 0.011 mGy/MBq
- Mean Absorbed Dose, Thyroid [3]: 0.0663 mGy/MBq
- Mean Absorbed Dose, Total Body [3]: 0.0133 mGy/MBq
- Mean Absorbed Dose, Urinary Bladder Wall [3]: 0.126 mGy/MBq
- Mean Absorbed Dose, Uterus [3]: 0.018 mGy/MBq
- effective dose [3]: 0.0218 mSv/MBq
- effective dose (radiation exposure) at injected activity of 200 MBq [3]: 4.4 mSv
- kidney radiation [3]: 0.063 mGy/MBq
- radiation dose, kidneys [3]: 0.063 mSv/MBq
- radiation dose, thyroid [3]: 0.066 mSv/MBq
- radiation dose, urinary bladder wall [3]: 0.126 mSv/MBq

Compound: [^68Ga]Ga-NODAGA-RGDyK [monomeric RGD PET tracer]
- effective dose [4]: 19.8 µSv/MBq
- kidney radiation [4]: 0.046 mGy/MBq
- mean SUVmax in the primary tumor [5]: 3.9 ± 1.1

Compound: NODAGA-E[c(RGDyK)]2 (head to tail) [unlabelled precursor of the tracer, obtained as acetate from ABX GmbH]
- Kd (integrin subtype αvβ3): 75 pM
